One data set deals with (FAM)-AWFHVEED peptide. Briefly: fluorescence polarisation. For orientation: Fluorescence polarisation rises when a labelled molecule tumbles more slowly, as on binding a larger partner.
The target of data set [1] is WFHVEED peptide (synthetic construct). As to the kind of experiment: fluorescence polarization. As to conditions: cited from earlier work.
For a further data set, the target named is T1, GST-CA150 FF1-3 (human, UniProt O14776 661-845).
T1 sequence: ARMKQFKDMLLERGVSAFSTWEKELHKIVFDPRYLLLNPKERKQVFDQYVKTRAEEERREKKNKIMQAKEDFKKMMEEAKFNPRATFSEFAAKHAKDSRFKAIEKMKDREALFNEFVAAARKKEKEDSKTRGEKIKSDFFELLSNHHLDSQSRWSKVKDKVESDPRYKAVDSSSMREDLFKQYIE
As to the kind of experiment: fluorescence polarization.

In the next data set the target is T2, CA150 FF1-3 wild-type (human, UniProt O14776 661-845).
T2 sequence: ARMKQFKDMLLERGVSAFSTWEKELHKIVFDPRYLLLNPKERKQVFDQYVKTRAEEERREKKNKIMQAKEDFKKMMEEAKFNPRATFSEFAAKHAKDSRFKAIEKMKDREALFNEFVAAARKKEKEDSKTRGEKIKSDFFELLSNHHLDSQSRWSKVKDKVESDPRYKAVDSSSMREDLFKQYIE
Briefly: fluorescence polarization.

Data set [2] has as its target T3, CA150 FF1-3 (human CA150 residues 661-845), GST cleaved off (human, UniProt O14776 661-845).
T3 sequence: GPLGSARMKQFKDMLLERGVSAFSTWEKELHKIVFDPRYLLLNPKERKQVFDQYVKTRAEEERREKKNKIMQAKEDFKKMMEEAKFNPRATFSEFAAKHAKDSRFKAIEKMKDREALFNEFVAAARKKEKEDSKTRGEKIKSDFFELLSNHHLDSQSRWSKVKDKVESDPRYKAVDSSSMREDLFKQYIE
As to the kind of experiment: fluorescence polarisation.

Where no end group is shown, it is not given here. The star is where a group is joined. 5FAM = O=C1OC2(c3ccc(O)cc3Oc3cc(O)ccc32)c2ccc(C(=O)*)cc21

With GST alone, the Kd (in general, the equilibrium constant for the complex coming apart) with (FAM)-AWFHVEED peptide was over 740 µM.
“CA150 (GST-FF1-3) FF1-3 (from UniProt O14776)”: in data set [1], the Kd was 48 µM.

B1: MATa1/MATalpha2 duplex of Ke et al. (dsDNA)
DNA 1: ACATGTAAAAATTTACATCA
DNA 2: TTGATGTAAATTTTTACATG
On to B1, for which the values for the Kd with GST-CA150 FF1-3 and with CA150 FF1-3 wild-type were 0.52 ± 0.06 µM and 3.87 ± 0.31 µM, respectively.
With 5FAM-AWFHVEED [(FAM)-AWFHVEED peptide], the Kd in data set [2] is over 400 µM.
